{
  "source": "paper PMC9482650",
  "about": "“Quantitative fragmentomics allow affinity mapping of interactomes” (Nature Communications, 2022)",
  "test_in_all_cases": "holdup assay",
  "parameters_in_all_cases": "key: below the threshold = too weak to quantify, mostly under pKd 3.1 to 4",
  "key": {"PTPN13_1, Q12923": {"biological_target": "T1, PTPN13_1, Q12923", "T1 sequence (Q12923 1088-1188, limits assumed, looked up)": "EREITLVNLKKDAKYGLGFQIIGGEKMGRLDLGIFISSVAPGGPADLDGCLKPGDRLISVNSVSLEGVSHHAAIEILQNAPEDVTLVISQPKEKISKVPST"}, "APBA1_2, Q02410": {"biological_target": "T2, APBA1_2, Q02410", "T2 sequence (Q02410 742-832, limits assumed, looked up)": "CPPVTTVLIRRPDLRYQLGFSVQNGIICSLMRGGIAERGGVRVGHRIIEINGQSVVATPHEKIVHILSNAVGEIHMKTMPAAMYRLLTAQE"}, "ARHGEF12, Q9NZN5-2": {"biological_target": "ARHGEF12, Q9NZN5-2", "sequence (Q9NZN5 other isoform, or with tags, fused parts or gaps)": "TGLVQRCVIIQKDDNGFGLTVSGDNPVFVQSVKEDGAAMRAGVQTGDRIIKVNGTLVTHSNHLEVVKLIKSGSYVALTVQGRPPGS"}, "LNX1_3, Q8TBB1": {"biological_target": "LNX1_3, Q8TBB1", "sequence (Q8TBB1 500-596)": "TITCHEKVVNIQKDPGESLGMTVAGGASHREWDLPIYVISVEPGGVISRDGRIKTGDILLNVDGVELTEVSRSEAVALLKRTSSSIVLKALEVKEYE"}, "Inadl_9, Q8NI35": {"biological_target": "Inadl_9, Q8NI35", "sequence (Q8NI35 1530-1615)": "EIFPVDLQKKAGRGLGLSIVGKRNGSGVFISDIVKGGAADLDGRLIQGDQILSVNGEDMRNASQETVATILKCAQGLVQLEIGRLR"}, "MAGI1_1, Q96QZ7": {"biological_target": "MAGI1_1, Q96QZ7", "sequence (Q96QZ7 1-106)": "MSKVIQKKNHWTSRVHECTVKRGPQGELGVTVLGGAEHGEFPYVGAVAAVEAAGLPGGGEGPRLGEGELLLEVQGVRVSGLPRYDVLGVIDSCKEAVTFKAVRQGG"}, "MAGI2_4, Q86UL8": {"biological_target": "MAGI2_4, Q86UL8", "sequence (Q86UL8 772-865)": "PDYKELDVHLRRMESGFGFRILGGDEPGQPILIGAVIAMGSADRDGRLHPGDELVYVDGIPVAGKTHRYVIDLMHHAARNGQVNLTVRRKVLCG"}, "HTRA3, P83110": {"biological_target": "T3, HTRA3, P83110", "T3 sequence (P83110 354-453, limits assumed, looked up)": "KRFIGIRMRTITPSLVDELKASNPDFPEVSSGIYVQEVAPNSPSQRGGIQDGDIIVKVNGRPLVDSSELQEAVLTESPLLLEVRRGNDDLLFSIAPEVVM"}, "NOS1, P29475": {"biological_target": "NOS1, P29475", "sequence (P29475 9-101)": "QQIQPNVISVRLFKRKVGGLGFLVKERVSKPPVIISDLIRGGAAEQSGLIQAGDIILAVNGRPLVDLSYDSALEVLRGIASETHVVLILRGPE"}, "LNX2_2, Q8N448": {"biological_target": "T4, LNX2_2, Q8N448", "T4 sequence (Q8N448 334-432, limits assumed, looked up)": "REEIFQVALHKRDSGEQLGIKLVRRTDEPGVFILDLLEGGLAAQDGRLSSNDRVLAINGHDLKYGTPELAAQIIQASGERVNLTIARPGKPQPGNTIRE"}, "HTRA4, P83105": {"biological_target": "T5, HTRA4, P83105", "T5 sequence (P83105 378-476, limits assumed, looked up)": "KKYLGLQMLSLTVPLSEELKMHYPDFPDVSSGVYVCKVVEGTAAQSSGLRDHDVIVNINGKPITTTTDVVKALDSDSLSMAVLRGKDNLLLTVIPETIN"}, "MAGI2_5, Q86UL8": {"biological_target": "MAGI2_5, Q86UL8", "sequence (Q86UL8 915-1017)": "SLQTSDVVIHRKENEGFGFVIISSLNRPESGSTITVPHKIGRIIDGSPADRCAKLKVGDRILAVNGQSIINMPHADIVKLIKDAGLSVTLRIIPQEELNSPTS"}, "MAGI2_2, Q86UL8": {"biological_target": "MAGI2_2, Q86UL8", "sequence (Q86UL8 410-522)": "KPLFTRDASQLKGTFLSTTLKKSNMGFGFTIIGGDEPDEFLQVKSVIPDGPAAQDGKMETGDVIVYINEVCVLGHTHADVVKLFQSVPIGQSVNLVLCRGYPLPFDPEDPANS"}, "DLG4_3, P78352": {"biological_target": "DLG4_3, P78352", "sequence (P78352 306-403)": "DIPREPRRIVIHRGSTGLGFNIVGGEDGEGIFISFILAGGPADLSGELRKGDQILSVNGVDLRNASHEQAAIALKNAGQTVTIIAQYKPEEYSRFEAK"}, "SCRIB_3, Q14160": {"biological_target": "SCRIB_3, Q14160", "sequence (Q14160 999-1103)": "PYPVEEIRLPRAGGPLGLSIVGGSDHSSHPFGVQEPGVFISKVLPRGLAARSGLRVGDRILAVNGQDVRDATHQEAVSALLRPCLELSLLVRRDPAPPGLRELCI"}, "Inadl_4, Q8NI35": {"biological_target": "Inadl_4, Q8NI35", "sequence (Q8NI35 547-651)": "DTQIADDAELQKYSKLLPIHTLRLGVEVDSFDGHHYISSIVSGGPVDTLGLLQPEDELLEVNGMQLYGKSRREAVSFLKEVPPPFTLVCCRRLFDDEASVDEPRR"}, "APBA2_1, Q99767": {"biological_target": "T6, APBA2_1, Q99767", "T6 sequence (Q99767 563-664, limits assumed, looked up)": "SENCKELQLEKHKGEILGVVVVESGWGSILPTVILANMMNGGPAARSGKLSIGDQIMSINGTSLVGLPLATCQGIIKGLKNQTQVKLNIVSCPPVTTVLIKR"}, "AHNAK1, Q09666": {"biological_target": "AHNAK1, Q09666", "sequence (Q09666 4-100)": "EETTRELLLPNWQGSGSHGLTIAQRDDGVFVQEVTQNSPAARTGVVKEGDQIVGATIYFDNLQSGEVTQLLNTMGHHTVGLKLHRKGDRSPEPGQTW"}, "Inadl_3, Q8NI35": {"biological_target": "Inadl_3, Q8NI35", "sequence (Q8NI35 359-469)": "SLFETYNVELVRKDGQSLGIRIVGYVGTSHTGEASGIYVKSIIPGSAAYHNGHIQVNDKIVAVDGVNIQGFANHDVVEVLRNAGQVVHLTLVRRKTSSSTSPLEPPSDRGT"}, "MAGI2_3, Q86UL8": {"biological_target": "MAGI2_3, Q86UL8", "sequence (Q86UL8 600-682)": "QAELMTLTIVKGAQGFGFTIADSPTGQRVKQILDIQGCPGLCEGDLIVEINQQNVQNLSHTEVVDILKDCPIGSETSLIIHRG"}, "SHANK1, Q9Y566": {"biological_target": "T7, SHANK1, Q9Y566", "T7 sequence (Q9Y566 658-767, limits assumed, looked up)": "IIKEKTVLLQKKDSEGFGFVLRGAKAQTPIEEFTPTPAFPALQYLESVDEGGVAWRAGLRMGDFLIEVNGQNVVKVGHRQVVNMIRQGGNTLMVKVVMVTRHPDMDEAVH"}, "FRMPD3, Q5JV73": {"biological_target": "FRMPD3, Q5JV73", "sequence (Q5JV73 12-100)": "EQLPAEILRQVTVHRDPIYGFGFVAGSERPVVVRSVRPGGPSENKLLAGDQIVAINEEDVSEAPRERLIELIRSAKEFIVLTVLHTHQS"}, "GRIP2_4, Q9C0E4": {"biological_target": "GRIP2_4, Q9C0E4", "sequence (Q9C0E4 446-548)": "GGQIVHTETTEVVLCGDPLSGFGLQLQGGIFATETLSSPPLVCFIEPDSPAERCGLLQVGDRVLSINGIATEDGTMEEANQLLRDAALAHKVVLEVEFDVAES"}, "MAST1, Q9Y2H9": {"biological_target": "MAST1, Q9Y2H9", "sequence (Q9Y2H9 962-1065)": "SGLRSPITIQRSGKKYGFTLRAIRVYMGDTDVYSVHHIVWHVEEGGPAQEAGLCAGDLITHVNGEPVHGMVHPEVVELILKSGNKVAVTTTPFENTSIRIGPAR"}, "DLG5_1, Q8TDM6": {"biological_target": "DLG5_1, Q8TDM6", "sequence (Q8TDM6 617-713)": "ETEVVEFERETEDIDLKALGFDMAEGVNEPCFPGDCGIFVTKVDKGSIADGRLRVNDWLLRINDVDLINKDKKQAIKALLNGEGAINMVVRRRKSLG"}, "NHERF2_2, Q15599": {"biological_target": "NHERF2_2, Q15599", "sequence (Q15599 142-238)": "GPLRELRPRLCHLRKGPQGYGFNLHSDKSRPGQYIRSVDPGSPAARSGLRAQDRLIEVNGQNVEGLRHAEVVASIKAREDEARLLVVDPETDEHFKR"}, "PDZRN3_1, Q9UPQ7": {"biological_target": "T8, PDZRN3_1, Q9UPQ7", "T8 sequence (Q9UPQ7 244-349, limits assumed, looked up)": "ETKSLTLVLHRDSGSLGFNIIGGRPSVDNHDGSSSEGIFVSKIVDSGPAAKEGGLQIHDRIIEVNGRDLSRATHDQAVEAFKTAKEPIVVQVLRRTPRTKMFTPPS"}, "ARHGEF11, O15085": {"biological_target": "T9, ARHGEF11, O15085", "T9 sequence (O15085 42-136, limits assumed, looked up)": "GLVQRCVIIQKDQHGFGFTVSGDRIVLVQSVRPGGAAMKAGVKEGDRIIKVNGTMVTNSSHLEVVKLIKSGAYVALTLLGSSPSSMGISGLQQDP"}, "[1]": {"conditions": "plain residues with an end cap or a label only (N-terminal biotin on a linker: ahx)"}, "[2]": {"conditions": "plain residues with an end cap or a label only (N-terminal biotin on a linker: ttds)"}},
  "data": [
    {"binder": "SAPATLSSRA", "note": "[PDLIM2, Q96JY6]", "values": [
      {"measurement": "pKd", "setting": "PTPN13_1, Q12923; [1]", "result": "below the threshold"},
      {"measurement": "pKd", "setting": "APBA1_2, Q02410; [1]", "result": "below the threshold"},
      {"measurement": "pKd", "setting": "ARHGEF12, Q9NZN5-2; [1]", "result": "below the threshold"},
      {"measurement": "pKd", "setting": "LNX1_3, Q8TBB1; [1]", "result": "below the threshold"},
      {"measurement": "pKd", "setting": "Inadl_9, Q8NI35; [1]", "result": "below the threshold"},
      {"measurement": "pKd", "setting": "MAGI1_1, Q96QZ7; [1]", "result": "below the threshold"},
      {"measurement": "pKd", "setting": "MAGI2_4, Q86UL8; [1]", "result": "below the threshold"},
      {"measurement": "pKd", "setting": "HTRA3, P83110; [1]", "result": "below the threshold"},
      {"measurement": "pKd", "setting": "NOS1, P29475; [1]", "result": "below the threshold"},
      {"measurement": "pKd", "setting": "LNX2_2, Q8N448; [1]", "result": "below the threshold"},
      {"measurement": "pKd", "setting": "HTRA4, P83105; [1]", "result": "below the threshold"},
      {"measurement": "pKd", "setting": "MAGI2_5, Q86UL8; [1]", "result": "below the threshold"},
      {"measurement": "pKd", "setting": "MAGI2_2, Q86UL8; [1]", "result": "below the threshold"},
      {"measurement": "pKd", "setting": "DLG4_3, P78352; [1]", "result": "below the threshold"},
      {"measurement": "pKd", "setting": "SCRIB_3, Q14160; [1]", "result": "below the threshold"},
      {"measurement": "pKd", "setting": "Inadl_4, Q8NI35; [1]", "result": "below the threshold"},
      {"measurement": "pKd", "setting": "APBA2_1, Q99767; [1]", "result": "below the threshold"},
      {"measurement": "pKd", "setting": "AHNAK1, Q09666; [1]", "result": "below the threshold"},
      {"measurement": "pKd", "setting": "Inadl_3, Q8NI35; [1]", "result": 3.48},
      {"measurement": "pKd", "setting": "MAGI2_3, Q86UL8; [1]", "result": "below the threshold"},
      {"measurement": "pKd", "setting": "SHANK1, Q9Y566; [1]", "result": "below the threshold"},
      {"measurement": "pKd", "setting": "FRMPD3, Q5JV73; [1]", "result": "below the threshold"},
      {"measurement": "pKd", "setting": "GRIP2_4, Q9C0E4; [1]", "result": "below the threshold"},
      {"measurement": "pKd", "setting": "MAST1, Q9Y2H9; [1]", "result": "below the threshold"},
      {"measurement": "pKd", "setting": "DLG5_1, Q8TDM6; [1]", "result": "below the threshold"},
      {"measurement": "pKd", "setting": "NHERF2_2, Q15599; [1]", "result": "below the threshold"},
      {"measurement": "pKd", "setting": "PDZRN3_1, Q9UPQ7; [1]", "result": "below the threshold"},
      {"measurement": "pKd", "setting": "ARHGEF11, O15085; [1]", "result": "below the threshold"}
    ]},
    {"binder": "SGGKRKETLV", "note": "[NET1, Q7Z628]", "values": [
      {"measurement": "pKd", "setting": "PTPN13_1, Q12923; [2]", "result": "below the threshold"},
      {"measurement": "pKd", "setting": "APBA1_2, Q02410; [2]", "result": 3.53},
      {"measurement": "pKd", "setting": "ARHGEF12, Q9NZN5-2; [2]", "result": 3.74},
      {"measurement": "pKd", "setting": "LNX1_3, Q8TBB1; [2]", "result": "below the threshold"},
      {"measurement": "pKd", "setting": "Inadl_9, Q8NI35; [2]", "result": 3.66},
      {"measurement": "pKd", "setting": "MAGI1_1, Q96QZ7; [2]", "result": "below the threshold"},
      {"measurement": "pKd", "setting": "MAGI2_4, Q86UL8; [2]", "result": 4.75},
      {"measurement": "pKd", "setting": "HTRA3, P83110; [2]", "result": "below the threshold"},
      {"measurement": "pKd", "setting": "NOS1, P29475; [2]", "result": 4.09},
      {"measurement": "pKd", "setting": "LNX2_2, Q8N448; [2]", "result": 4.66},
      {"measurement": "pKd", "setting": "HTRA4, P83105; [2]", "result": "below the threshold"},
      {"measurement": "pKd", "setting": "MAGI2_5, Q86UL8; [2]", "result": 4.56},
      {"measurement": "pKd", "setting": "MAGI2_2, Q86UL8; [2]", "result": 5.87},
      {"measurement": "pKd", "setting": "DLG4_3, P78352; [2]", "result": 4.92},
      {"measurement": "pKd", "setting": "SCRIB_3, Q14160; [2]", "result": 4.31},
      {"measurement": "pKd", "setting": "Inadl_4, Q8NI35; [2]", "result": "below the threshold"},
      {"measurement": "pKd", "setting": "APBA2_1, Q99767; [2]", "result": "below the threshold"},
      {"measurement": "pKd", "setting": "AHNAK1, Q09666; [2]", "result": 3.56},
      {"measurement": "pKd", "setting": "Inadl_3, Q8NI35; [2]", "result": "below the threshold"},
      {"measurement": "pKd", "setting": "MAGI2_3, Q86UL8; [2]", "result": 4.5},
      {"measurement": "pKd", "setting": "SHANK1, Q9Y566; [2]", "result": "below the threshold"},
      {"measurement": "pKd", "setting": "FRMPD3, Q5JV73; [2]", "result": "below the threshold"},
      {"measurement": "pKd", "setting": "GRIP2_4, Q9C0E4; [2]", "result": "below the threshold"},
      {"measurement": "pKd", "setting": "MAST1, Q9Y2H9; [2]", "result": 4.33},
      {"measurement": "pKd", "setting": "DLG5_1, Q8TDM6; [2]", "result": "below the threshold"},
      {"measurement": "pKd", "setting": "NHERF2_2, Q15599; [2]", "result": "below the threshold"},
      {"measurement": "pKd", "setting": "PDZRN3_1, Q9UPQ7; [2]", "result": 4.67},
      {"measurement": "pKd", "setting": "ARHGEF11, O15085; [2]", "result": 4.23}
    ]}
  ]
}
